The values that follow come from PMC9307851.

This assay addresses DNMT3B MTase domain (residues 569-853), R670Q (human) (UniProt Q9UBC3).

“DNMT3B MTase domain (residues 569-853), R670Q (from UniProt Q9UBC3-1 569-853) (domain or fragment)”: the in vitro DNA methylation efficiency of the DNMT3B-DNMT3B complex on CpG DNA, reduction against WT was found to be 3 fold.
